Laboratory results from the supplement of paper PMC10724198.
± gives the standard deviation of the averaged measurements.

system: Saccharomyces cerevisiae; assay: protein stability index of tFT-peptide fusion (C-terminal peptide) (PSI (0-1 scale)); higher = more stable (slower turnover); conditions: genetic background: wild type; temperature: 30 C
Procedure: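 MPS profiling in S. cerevisiae of the yeast C-terminome library: the last 12 aa of each annotated ORF are fused to the C-terminus of a sfGFP-mCherry timer, after a GGGS linker. Cells are FACS-sorted into 8 mCherry/sfGFP bins and deep-sequenced. PSI runs from 0 (unstable) to 1 (stable); wild type and das1Δ backgrounds, two technical replicates each.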

Row | Sequence | protein stability index
1 | EQLEEEFVRQEH [OSW7 C-terminal 12 aa] | 0.7301 ± 0.0026
2 | EQLEQDDGRKGG [LSM12 C-terminal 12 aa] | 0.669 ± 0.023
3 | EQNAALGQGLGR [TIM9 C-terminal 12 aa] | 0.692 ± 0.0086
4 | EQNLEALAKSFF [BEM4 C-terminal 12 aa] | 0.697 ± 0.029
5 | EQSEQPEQHQDK [RPN10 C-terminal 12 aa] | 0.666 ± 0.01
6 | ERKPLDFLRTAK [MRPL39 C-terminal 12 aa] | 0.659 ± 0.0088
7 | ESAKQRRDKQKN [ATG38 C-terminal 12 aa] | 0.686 ± 0.02
8 | ESLQKNIKIETK [MUM3 C-terminal 12 aa] | 0.671 ± 0.051
9 | ESVSYLFTHAPV [PRS2 C-terminal 12 aa] | 0.711 ± 0.023
10 | ESYRDDSIEAED [NCR1 C-terminal 12 aa] | 0.7157 ± 0.0012
11 | ETIAEEMDSVHT [YAL064W-B C-terminal 12 aa] | 0.662 ± 0.018
12 | ETNFWTAALEYE [THI20 C-terminal 12 aa] | 0.759 ± 0.034
13 | ETVGYEAYLENK [ADE2 C-terminal 12 aa] | 0.661 ± 0.013
14 | EVDIDSLLAKLN [RLP7 C-terminal 12 aa] | 0.407 ± 0.023
15 | EVLEVAEKFKEE [DOT5 C-terminal 12 aa] | 0.683 ± 0.018
16 | EYHQEFLHKHVR [CWC15 C-terminal 12 aa] | 0.662 ± 0.015
17 | EYPWEKPKTLKF [SAM1 C-terminal 12 aa] | 0.6917 ± 0.0068
18 | FADTRPFDEIYR [ATP23 C-terminal 12 aa] | 0.727 ± 0.063
19 | FAFVVVKQEFIH [BYE1 C-terminal 12 aa] | 0.519 ± 0.0072
20 | FASGKPIKKVKN [DYS1 C-terminal 12 aa] | 0.706 ± 0.016
21 | FCKEKVYSKLLV [YNL103W-A C-terminal 12 aa] | 0.559 ± 0.0084

Row | Sequence | protein stability index
22 | FDTLIVHHFSSE [KHA1 C-terminal 12 aa] | 0.682 ± 0.021
23 | FEVMKFVNGLKV [RFX1 C-terminal 12 aa] | 0.5872 ± 0.0047
24 | FEWEDDESDEIA [ATG7 C-terminal 12 aa] | 0.706 ± 0.035
25 | FFRLGWSTWLHY [YOR029W C-terminal 12 aa] | 0.351 ± 0.0046
26 | FFRQWWDIIQSK [YMR316C-A C-terminal 12 aa] | 0.671 ± 0.012
27 | FGDNSKHKTDKI [BOI2 C-terminal 12 aa] | 0.685 ± 0.019
28 | FIENVLKKRNMK [LIP5 C-terminal 12 aa] | 0.7 ± 0.041
29 | FIFYSILPTNVI [YPR123C C-terminal 12 aa] | 0.645 ± 0.029
30 | FIKKWAHYYKKF [SBE22 C-terminal 12 aa] | 0.236 ± 0.0037
31 | FKGFLENIDSYT [AIM22 C-terminal 12 aa] | 0.706 ± 0.0014
32 | FKLHNETRCRNR [VPS71 C-terminal 12 aa] | 0.677 ± 0.007
33 | FKVASIANAQVR [ARC1 C-terminal 12 aa] | 0.696 ± 0.027
34 | FLFSCMLYKIDP [YML089C C-terminal 12 aa] | 0.664 ± 0.034
35 | FLILVFVMKKNH [YDR018C C-terminal 12 aa] | 0.269 ± 0.017
36 | FLKNFTNDTFDN [BCH1 C-terminal 12 aa] | 0.7462 ± 0.0044
37 | FPEKNIVNLKSA [CHA1 C-terminal 12 aa] | 0.1495 ± 0.0011
38 | FPVTLWSKVILK [YHR073W-A C-terminal 12 aa] | 0.559 ± 0.026
39 | FRHNRSNKKLGC [GEX1 C-terminal 12 aa] | 0.7365 ± 0.0018
40 | FRPDEMNIVTKF [PRM15 C-terminal 12 aa] | 0.753 ± 0.024
41 | FRTDEVYAAWRD [KAE1 C-terminal 12 aa] | 0.6814 ± 0.0024
42 | FSIRSISKFIFT [YOR325W C-terminal 12 aa] | 0.665 ± 0.051

Row | Sequence | protein stability index
43 | FSNLLWFDQNFA [STB4 C-terminal 12 aa] | 0.786 ± 0.079
44 | FSTEYLGLICTY [YLR232W C-terminal 12 aa] | 0.5496 ± 0.0009
45 | FTMSLAHCLMFS [YJL169W C-terminal 12 aa] | 0.668 ± 0.066
46 | FVAYTTLTFKKT [YMR001C-A C-terminal 12 aa] | 0.67 ± 0.037
47 | FVEGGDGKYVLN [YPL113C C-terminal 12 aa] | 0.676 ± 0.014
48 | FVKDEIHKDILD [PEX21 C-terminal 12 aa] | 0.685 ± 0.011
49 | FVKVIDYTSNGW [PBY1 C-terminal 12 aa] | 0.685 ± 0.015
50 | FVLSISFRQEQT [YER172C-A C-terminal 12 aa] | 0.591 ± 0.025
51 | FYSLCEKGGYLK [BPT1 C-terminal 12 aa] | 0.66733 ± 0.00062
52 | FYSVFALMVIFV [YIP1 C-terminal 12 aa] | 0.122 ± 0.003
53 | GAAVGGALAFLI [DDR2 C-terminal 12 aa] | 0.677 ± 0.0076
54 | GAIMGAAAFALL [TOS6 C-terminal 12 aa] | 0.729 ± 0.053
55 | GAQPHLYIPDED [USA1 C-terminal 12 aa] | 0.6982 ± 0.003
56 | GCSLQISYARRD [GBP2 C-terminal 12 aa] | 0.6525 ± 0.0037
57 | GCVKMYKFDLND [MET30 C-terminal 12 aa] | 0.7322 ± 0.0023
58 | GDLLSLKGEIMQ [ALK2 C-terminal 12 aa] | 0.691 ± 0.029
59 | GDVSNLPYLDEL [QCR2 C-terminal 12 aa] | 0.722 ± 0.039
60 | GDYTVKQPEATK [AIM9 C-terminal 12 aa] | 0.672 ± 0.029
61 | GEDPYMDLMKEF [TPK3 C-terminal 12 aa] | 0.733 ± 0.036
62 | GEDTGPTVEEVD [SSA3 C-terminal 12 aa] | 0.684 ± 0.015
63 | GGGVLQLISYIL [YSY6 C-terminal 12 aa] | 0.656 ± 0.015

Row | Sequence | protein stability index
64 | GGKDKMVRLWTH [RSA4 C-terminal 12 aa] | 0.698 ± 0.0076
65 | GGPFPYYFNTFC [YKL169C C-terminal 12 aa] | 0.53 ± 0.027
66 | GHSHKHKGHQKK [KRI1 C-terminal 12 aa] | 0.667 ± 0.018
67 | GIHPPEPIAAAA [KTI11 C-terminal 12 aa] | 0.357 ± 0.017
68 | GKNQWFFSKLRF [RPL27A C-terminal 12 aa] | 0.683 ± 0.013
69 | GLKQKSTIVTVD [CDC5 C-terminal 12 aa] | 0.717 ± 0.078
70 | GLLVVFDRIDVK [MET7 C-terminal 12 aa] | 0.634 ± 0.013
71 | GLTLIGRQSDSI [RAD7 C-terminal 12 aa] | 0.71 ± 0.074
72 | GMYSRAYETHTL [ERG7 C-terminal 12 aa] | 0.696 ± 0.022
73 | GNAEFAASLLFQ [DDI1 C-terminal 12 aa] | 0.7022 ± 0.0025
74 | GNEPMEKFIQSL [YMR090W C-terminal 12 aa] | 0.669 ± 0.0072
75 | GNSGGSNNSSWW [DED1 C-terminal 12 aa] | 0.697 ± 0.02
76 | GNTGSGGYDNAW [RPB3 C-terminal 12 aa] | 0.723 ± 0.026
77 | GPDAPLSKMKYE [SCS7 C-terminal 12 aa] | 0.704 ± 0.0071
78 | GQLLSGSCLLNM [YBR226C C-terminal 12 aa] | 0.679 ± 0.053
79 | GRPSMVPIAELK [MLH3 C-terminal 12 aa] | 0.714 ± 0.062
80 | GSGDEPDSKRRK [YCR051W C-terminal 12 aa] | 0.666 ± 0.037
81 | GTQVMYISEQKI [LSM6 C-terminal 12 aa] | 0.713 ± 0.016
82 | GVEKYWGILSNE [SCW4 C-terminal 12 aa] | 0.726 ± 0.039
